Series [1] has as its target dCENP-A^C chimera, GFP-LacI fusion (Drosophila) (UniProt Q9V6Q2). Briefly: LacI/LacO tethering and co-recruitment in cells.
Series [2] deals with (dCENP-A/dH4) dimer (Drosophila), Q9V6Q2. Briefly: SEC-MALS. The settings on record: remark: other sources report otherwise. In general terms: Size exclusion chromatography separates by hydrodynamic size, large species first.
The series “SEC-MALS” concerns the molecule itself. The series can be described thus: SEC-MALS.

By stoichiometry N is commonly meant the number of molecules, sites or subunits per partner or assembly.

In turn, “CAL1-V5 (from UniProt Q9VEN2 1-979) (natural protein)” yielded a CAL1 recruitment relative to WT dCENP-A in series [1] of 60%.

B1: recombinant CAL1(1-160), Q9VEN2 1-160 (domain or fragment)
chain: MANAVVDEETLEAMVYERSKAWSSKMADFASLEDGMEIDVAEFDNLFHGEDEDPDLDDVAKEAVEDNVPDEAKLEMGHINATSVTELTLILCANEDNEAKAEIEEILNQTVPVVEEHKRKWREAGLDRILDTFDEKQIEHHVGRWMRRHNSVYLEASPPK
Molecule B1 yielded a stoichiometry N in series [2] of 1.

B2: His-dCENP-C(1264-1411) (domain or fragment)
chain: GPVVFSTPLRDEQEEASTKLMQWLRGVGDAPPSASMSDENASVSSANELIFCQVDGIDYAFYNTKEKAMLGYMRFKPYQKRSMKQAKVHPLKLLVQFGEFNVETLAVGEEKEVHSVLRVGDMIEIDRGTRYSIQNAIDKVSVLMCIRS
In the case of B2, the “stoichiometry N” value in the series “SEC-MALS” is 2.

Source of the values: publication doi:10.1101/560391 (bioRxiv, 2019).
